From US20120172295A1

Target: glucagon receptor (UniProt P47871)
Test: cell-based or functional assay

glucagon receptor, sequence (P47871 26-477 limits assumed): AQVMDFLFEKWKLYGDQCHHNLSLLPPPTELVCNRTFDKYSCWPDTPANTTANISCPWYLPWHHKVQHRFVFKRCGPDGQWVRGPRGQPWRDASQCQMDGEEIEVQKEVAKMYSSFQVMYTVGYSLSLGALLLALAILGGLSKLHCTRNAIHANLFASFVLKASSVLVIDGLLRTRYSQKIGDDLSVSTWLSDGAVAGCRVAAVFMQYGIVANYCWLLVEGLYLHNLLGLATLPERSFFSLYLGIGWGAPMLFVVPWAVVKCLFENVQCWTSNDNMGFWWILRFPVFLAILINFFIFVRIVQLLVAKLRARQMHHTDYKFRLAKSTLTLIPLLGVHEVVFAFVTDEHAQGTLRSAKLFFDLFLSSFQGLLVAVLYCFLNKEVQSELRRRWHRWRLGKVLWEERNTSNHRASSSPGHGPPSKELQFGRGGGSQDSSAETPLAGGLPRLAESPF

% relative activity: 0.04%
Substance: Liraglutide (peptide)
